The source of these data is paper PMC11276767.

Usually Kd stands for the constant that tells how readily two partners part at equilibrium. Read a low Kd as a tighter complex.

The assay concerns the target Ca2+. Put plainly: in situ Ca2+ titration of FRET with mNGΔN5-SOAR1L. The settings on record: 25 µM digitonin, 10 µM ionomycin, EGTA.

STIM1 1-310-CFPΔC11 C49A; C56A yielded a Kd (cells transfected with CasRx-P4HB (P4HB knockdown), Hill n 2.8±0.09) of 740 µM; a Kd (cells transfected with CasRx-PDIA3 (PDIA3 knockdown), Hill n 2.8±0.12) of 750 µM; a Kd (cells transfected with control CasRx, Hill n 2.7±0.12) of 760 µM.
